Experimental data from patent US6774222, “Molecular computing elements, gates and flip-flops” (The United States of America as represented by the …).

Key:
[1] = molecular target: T1, Fis (Factor for Inversion Stimulation) (Escherichia coli, UniProt P0A6R3 P0A6R3:1-98); test: EMSA; single shift only, no doubly shifted band up to 2200 nM Fis with 1 nM DNA; sites bound mutually exclusively; settings: chain copies: 2 (dimer, stated); label: 5' biotin; self-complementary linear duplex
Procedure: (§1) FIG. 9 illustrates the mobility shift experiments for 11 and 7 base pair overlapping and 23 base pair separated Fis sites. Each lane contains increasing concentrations of Fis protein, beginning with no Fis, Fis diluted 1 to 64, etc. The 1:1 dilution is at 2200 nM Fis. This concentration was chosen intentionally so that with 1 nM DNA per reaction, the protein/DNA ratio is 2-fold higher than that needed to strongly shift DNA containing the 8.9 bit wild-type hin distal Fis site (Bruist et al. (1987) *Genes Dev.* 1: 762–772). Marker lanes (M) contain 10 ng of biotinylated […] hinfI digested DNA standards (Life Technologies, Inc.). Sizes are indicated in bp. The lowest band in most lanes of the figure is single-stranded oligonucleotide DNA. In the "Separated 23" experiment, at high concentrations, Fis proteins are apparently able to capture the single-stranded DNA when it has folded into a hairpin. This produces a faint band near the 100 bp marker.

[2] = molecular target: T1, Fis (Factor for Inversion Stimulation); test: EMSA; double shift; both sites bound simultaneously; up to 2200 nM Fis, 1 nM DNA; settings: chain copies: 2 (dimer, stated); label: 5' biotin; self-complementary linear duplex
Procedure: as §1

T1 sequence (P0A6R3 whole entry, one chain of several): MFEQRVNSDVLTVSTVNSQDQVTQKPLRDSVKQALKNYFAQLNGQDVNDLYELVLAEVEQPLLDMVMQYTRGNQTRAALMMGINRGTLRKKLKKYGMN

B1: overlap 11 Fis sites (dsDNA)
DNA 1: TATTCTTTGCTCAAAATTTGATCAAATTTTGAGCAAAGAATA
DNA 2: TATTCTTTGCTCAAAATTTGATCAAATTTTGAGCAAAGAATA
B1: binds [1].

B2: overlap 7 Fis sites (dsDNA)
DNA 1: AGGCTTTTGCTCAAAGTTTAAACTTTGAGCAAAAGCCT
DNA 2: AGGCTTTTGCTCAAAGTTTAAACTTTGAGCAAAAGCCT
B2: binds [1].

B3: separated 23 Fis sites (dsDNA)
DNA 1: GGAATTCTTTGCTCAAAATTTGATCAGGATCCTGATCAAATTTTGAGCAAAGAATTCC
DNA 2: GGAATTCTTTGCTCAAAATTTGATCAGGATCCTGATCAAATTTTGAGCAAAGAATTCC
B3: binds [2].
